# Test results from patent publication CN116724055A (CANTARGIA S R L, dated 2023).
# T1: 小鼠IL1RAP (小家鼠 (Mus musculus), UniProt Q61730 21-367, limits assumed)
# T1 construct: also called mIL1RAP
# T1 sequence (looked up): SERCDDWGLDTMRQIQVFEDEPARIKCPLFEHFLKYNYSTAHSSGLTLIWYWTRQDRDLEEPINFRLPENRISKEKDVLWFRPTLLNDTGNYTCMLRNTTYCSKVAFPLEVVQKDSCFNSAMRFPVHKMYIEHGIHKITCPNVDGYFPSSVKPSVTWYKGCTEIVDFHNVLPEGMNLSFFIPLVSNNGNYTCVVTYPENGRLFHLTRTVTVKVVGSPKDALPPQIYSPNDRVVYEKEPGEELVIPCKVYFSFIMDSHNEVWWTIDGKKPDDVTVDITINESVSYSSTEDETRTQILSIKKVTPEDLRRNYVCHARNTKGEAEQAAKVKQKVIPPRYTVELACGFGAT
# T2: 大鼠IL1RAP (褐家鼠 (Rattus norvegicus), UniProt Q63621 21-367, limits assumed)
# T2 construct: also called rnIL1RAP
# T2 sequence (looked up): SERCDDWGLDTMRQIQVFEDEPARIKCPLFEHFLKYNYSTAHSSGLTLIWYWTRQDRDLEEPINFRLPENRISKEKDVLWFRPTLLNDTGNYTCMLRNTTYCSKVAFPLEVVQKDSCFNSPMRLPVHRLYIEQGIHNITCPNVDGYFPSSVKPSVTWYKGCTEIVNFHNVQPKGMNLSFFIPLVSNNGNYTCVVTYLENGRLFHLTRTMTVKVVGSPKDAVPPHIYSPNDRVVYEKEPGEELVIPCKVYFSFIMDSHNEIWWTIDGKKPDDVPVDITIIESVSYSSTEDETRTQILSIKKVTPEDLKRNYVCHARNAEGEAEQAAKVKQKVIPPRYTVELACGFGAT
# T3: 重组mfIL1RAP aa21-367 (食蟹猴 (Macaca fascicularis), UniProt A0A2K5X5J5 21-367)
# T3 construct: also called 食蟹猴(cyno)IL1RAP
# T3 sequence: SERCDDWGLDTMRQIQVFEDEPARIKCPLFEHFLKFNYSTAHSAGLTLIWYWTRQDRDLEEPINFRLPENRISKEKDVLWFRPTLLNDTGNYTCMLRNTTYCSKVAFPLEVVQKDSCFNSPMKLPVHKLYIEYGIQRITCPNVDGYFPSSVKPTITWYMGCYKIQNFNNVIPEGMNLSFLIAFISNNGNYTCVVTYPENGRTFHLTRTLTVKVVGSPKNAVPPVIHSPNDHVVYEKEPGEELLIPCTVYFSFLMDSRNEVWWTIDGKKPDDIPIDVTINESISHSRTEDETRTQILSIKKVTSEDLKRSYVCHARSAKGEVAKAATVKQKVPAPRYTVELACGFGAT
# T4: 细胞膜上的人IL1RAP (人, UniProt Q9NPH3 21-570)
# T4 sequence (looked up): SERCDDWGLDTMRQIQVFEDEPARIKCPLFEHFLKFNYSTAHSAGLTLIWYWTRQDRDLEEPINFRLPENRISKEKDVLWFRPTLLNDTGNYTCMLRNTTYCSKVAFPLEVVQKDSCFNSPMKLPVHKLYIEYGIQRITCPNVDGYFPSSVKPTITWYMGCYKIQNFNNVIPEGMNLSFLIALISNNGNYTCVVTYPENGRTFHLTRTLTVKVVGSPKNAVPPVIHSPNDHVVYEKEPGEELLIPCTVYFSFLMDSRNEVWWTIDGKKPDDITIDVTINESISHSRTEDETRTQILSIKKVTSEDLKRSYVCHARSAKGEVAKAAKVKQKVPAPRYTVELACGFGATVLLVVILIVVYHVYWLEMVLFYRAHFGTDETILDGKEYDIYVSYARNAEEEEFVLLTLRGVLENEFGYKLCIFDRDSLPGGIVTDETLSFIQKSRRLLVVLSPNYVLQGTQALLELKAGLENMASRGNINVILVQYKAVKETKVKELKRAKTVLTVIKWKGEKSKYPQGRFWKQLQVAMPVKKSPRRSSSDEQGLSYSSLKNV
# Tests used:
# [1] = biological target: T1, 小鼠IL1RAP; assay: ELISA on coated IL1RAP orthologs
# [2] = biological target: T2, 大鼠IL1RAP; assay: ELISA on coated IL1RAP orthologs
# [3] = biological target: T3, 重组mfIL1RAP aa21-367; assay: binding ELISA, coated mfIL1RAP aa21-367
# [4] = biological target: T4, 细胞膜上的人IL1RAP; assay: cell-based or functional assay
# [5] = biological target: T3, 重组mfIL1RAP aa21-367; assay: ELISA on coated IL1RAP orthologs
Binder,binding result [1],binding result [2],binding result [3],other results
"h48D2 VH5:VL4 (antibody, human IgG1, kappa, L234A L235A, V domains shown, also called 人源化48D2变体VH5:VL4) VH: QEQLEESGGGLVKPGGTLSLTCTVSGPSLSHFDITWIRQAPGSGLEWIGTISPGVSTYYASWAKSRVTISVDTSLNTVSLKLSSVTAADTATYFCARGGVGSSWKAFDLWGPGTLVTISS VL: ELVMTQSPSSVSASVGDRVTITCQASESISTALAWYQQKPGKAPKLLIYKASTLPSGVPSRFSGSGSGTDFTLTINSLQPEDFATYYCQQGFSSGNVHNAFGGGTKVEIKR",,,binds,
"h48D2 VH5:VL5 (antibody, human IgG1, kappa, L234A L235A) heavy: not shown light: APVLTQSPATLEASVGDRVTITCQASESISTALAWYQQKPGQPPKLLIYKASTLPSGVPSRFSGSGSGTEFTLTISDLESDDAATYYCQQGFSSGNVHNAFGGGTEVVVKRTVAAPSVFIFPPSDEQLKSGTASVVCLLNNFYPREAKVQWKVDNALQSGNSQESVTEQDSKDSTYSLSSTLTLSKADYEKHKVYACEVTHQGLSSPVTKSFNRGEC",,,binds,

# Further lines, with some results ahead:
binding result [1],binding result [2],binding result [3],Binder,other results
no binding,no binding,,"h48D2 VH5.GL:VL4 (antibody, human IgG1, kappa, L234A L235A, V domains shown, also called 48D2变体VH5.GL:VL4; 人源化和去免疫化48D2变体VH5.GL:VL4) VH: QEQLEESGGGLVKPGGTLSLTCTVSGPSLSHFDITWIRQPPGKGLEWIGTISPGVSTYYASWAKSRVTISVDTSLNTVSLKLSSVTAADTATYFCARGGVGSSWKAFDLWGPGTLVTISS VL: ELVMTQSPSSVSASVGDRVTITCQASESISTALAWYQQKPGKAPKLLIYKASTLPSGVPSRFSGSGSGTDFTLTINSLQPEDFATYYCQQGFSSGNVHNAFGGGTKVEIKR",
no binding,no binding,,"h48D2 VH5.GL:VL5.GL (antibody, human IgG1, kappa, L234A L235A, humanised and de-immunised variant) heavy: not shown light: DIQMTQSPSTLSASVGDRVTITCQASESISTALAWYQQKPGQPPKLLIYKASTLPSGVPSRFSGSGSGTEFTLTISDLESDDAATYYCQQGFSSGNVHNAFGGGTEVVVKRTVAAPSVFIFPPSDEQLKSGTASVVCLLNNFYPREAKVQWKVDNALQSGNSQESVTEQDSKDSTYSLSSTLTLSKADYEKHKVYACEVTHQGLSSPVTKSFNRGEC",
no binding (tested: 4000ng/ml),no binding (tested: 4000ng/ml),,"嵌合48D2 (antibody, V domains shown, chimeric rabbit/human IgG1; also called ch48D2; 48D2嵌合(ch)兔/人抗人IL1RAP) VH: QEQLEESGGGLVKPGGSLTLTCTVSGPSLSHFDITWVRQAPGSGLEWIGTISPGVSTYYASWAKSRSTITSNTNLNTVTLKMTSLTAADTATYFCARGGVGSSWKAFDLWGPGTLVTISS VL: APVLTQTPASVEVAVGGTVTIKCQASESISTALAWYQQKPGQPPKLLIYKASTLPSGVSSRFKGSGSGTEFALTISDLECDDAATYYCQQGFSSGNVHNAFGGGTEVVVK","IC50, inhibition of IL-1α signalling, HEK-Blue assay (SEAP, OD 620nM) [4]: 1.92 nM; IC50, inhibition of IL-1β signalling, HEK-Blue assay (SEAP, OD 620nM) [4]: 0.7 nM; IC50, inhibition of IL-33 signalling, HEK-Blue assay (SEAP, OD 620nM) [4]: 2.92 nM; IC50, inhibition of IL-36α signalling, HEK-Blue assay (SEAP, OD 620nM) [4]: 0.0083 nM; IC50, inhibition of IL-36β signalling, HEK-Blue assay (SEAP, OD 620nM) [4]: 0.0081 nM; IC50, inhibition of IL-36γ signalling, HEK-Blue assay (SEAP, OD 620nM) [4]: 0.0111 nM; binding result [5]: binds"
